For the assay, the target named is Antibody 6 (Eu3+ cryptate labelled, Example 5). Briefly: HTRF competition: unlabelled test protein (maximum 100 nM) against biotin labelled human IL-1R1/Fc binding to cryptate labelled antibody.
Sequence of Antibody 6 (Eu3+ cryptate labelled, Example 5) (VH, as listed by the source, chain 1 of 2): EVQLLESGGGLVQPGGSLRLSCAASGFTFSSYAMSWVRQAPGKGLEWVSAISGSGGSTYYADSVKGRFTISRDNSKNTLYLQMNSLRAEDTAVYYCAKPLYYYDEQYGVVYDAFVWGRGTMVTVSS
Sequence of Antibody 6 (Eu3+ cryptate labelled, Example 5) (VL, as listed by the source, chain 2 of 2): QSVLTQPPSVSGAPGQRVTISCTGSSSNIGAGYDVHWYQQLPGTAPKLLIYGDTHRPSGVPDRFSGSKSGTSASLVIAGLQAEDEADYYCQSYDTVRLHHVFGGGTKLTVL

B1: MoIL-1R1 (mouse IL-1R1 extracellular domain Fc fusion) (Fc fusion, UniProt P13504 20-338, looked up, not shown: a dimerising Fc or GST)
chain: LEIDVCTEYPNQIVLFLSVNEIDIRKCPLTPNKMHGDTIIWYKNDSKTPISADRDSRIHQQNEHLWFVPAKVEDSGYYYCIVRNSTYCLKTKVTVTVLENDPGLCYSTQATFPQRLHIAGDGSLVCPYVSYFKDENNELPEVQWYKNCKPLLLDNVSFFGVKDKLLVRNVAEEHRGDYICRMSYTFRGKQYPVTRVIQFITIDENKRDRPVILSPRNETIEADPGSMIQLICNVTGQFSDLVYWKWNGSEIEWNDPFLAEDYQFVEHPSTKRKYTLITTLNISEVKSQFYRYPFICVVKNTNIFESAHVQLIYPVPDFK
As to B1, the percentage inhibition at the highest concentration of chimera was found to be 66%.
